{"source": "patent US20230390369A1", "biological_target": "human PD-L1 on antigen-presenting cells of the Promega J1250 assay (human) (UniProt Q9NZQ7)", "test": "cell-based or functional assay", "data": [{"substance": "atezolizumab (antibody)", "values": [{"measurement": "Luminescence (RLU) at 0.1 µg/mL", "value": 241000, "unit": "RLU"}, {"measurement": "Luminescence (RLU) at 20 µg/mL", "value": "1.47e+06", "unit": "RLU"}]}]}
